Fold increase of GFP fluorescence after RFP photobleaching data for one substance are collected here from PMC2475671.

The target of this test is Orc2-GFP (Drosophila (endogenous in salivary glands)) (UniProt Q24168). The test is described as follows: FRET or BRET; acceptor photobleaching (543 nm laser) of Rbf1N-RFP (mCherry) with Orc2-GFP (EGFP) as donor, in chromatin-washed, formaldehyde-fixed salivary gland nuclei; ratio of bleached to non-bleached areas in three nuclei. For orientation: BRET reads energy transfer from a luciferase to a nearby fluorophore.
UniProt Q24168, sequence (Q24168 whole entry): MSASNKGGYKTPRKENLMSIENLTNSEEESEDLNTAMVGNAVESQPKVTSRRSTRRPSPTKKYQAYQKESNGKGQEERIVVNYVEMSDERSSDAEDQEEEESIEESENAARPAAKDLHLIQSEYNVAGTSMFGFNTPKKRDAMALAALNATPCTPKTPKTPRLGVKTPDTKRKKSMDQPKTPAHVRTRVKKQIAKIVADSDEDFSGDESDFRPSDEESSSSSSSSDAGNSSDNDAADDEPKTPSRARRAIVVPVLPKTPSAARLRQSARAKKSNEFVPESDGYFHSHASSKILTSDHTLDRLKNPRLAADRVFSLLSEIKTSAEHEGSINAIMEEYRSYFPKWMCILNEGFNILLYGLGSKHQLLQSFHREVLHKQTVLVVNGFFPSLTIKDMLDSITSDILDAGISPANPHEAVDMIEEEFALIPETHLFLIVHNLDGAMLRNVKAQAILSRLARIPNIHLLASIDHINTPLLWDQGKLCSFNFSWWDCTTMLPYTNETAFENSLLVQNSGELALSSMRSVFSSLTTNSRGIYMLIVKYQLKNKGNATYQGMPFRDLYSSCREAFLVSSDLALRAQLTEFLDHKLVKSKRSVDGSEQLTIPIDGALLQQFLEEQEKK

In the case of “Rbf1N-RFP (Rbf1 amino acids 1–345 with C-terminal V5 and mCherry, Lys241Glu) (domain or fragment)”, the fold increase of GFP fluorescence after RFP photobleaching was in the range of 1.5 to 2 fold.
